Usually IC50 stands for the concentration that gives 50% inhibition. The low end stands for greater potency in that assay, the high end for weaker potency in that assay.

Starred links: 1 amine or outer side, 2 acyl side, 3 side chain; linkers in the order of their positions; H or OH if unused. Positions of bridges follow the written chain, without caps; N, C: chain ends. Non-standard residues stand in square brackets, D forms with d. Primed or numbered codes have the meaning given here. No end group written: not given here. Pmc′ = pentamethylenecysteine (from Boc-D/L-Pmc), O=C(C(N[*:1])C1(S[*:3])CCCCC1)[*:2]; Cys(β,β-pentamethylene) = O=C([C@@H](N[*:1])C1(S[*:3])CCCCC1)[*:2]; Tyr(Me)″ = COc1ccc(C[C@H](N[*:1])C(=O)[*:2])cc1; 2Nal = N[C@@H](Cc1ccc2ccccc2c1)C(=O)O; Pen = CC(C)(S)[C@H](N)C(=O)O

The values below come from patent US6521594.

The target in assay [1] is Platelet glycoprotein IIb/IIIa (human), P08514. Kind of assay: ELISA. As to conditions: modification not given. In general terms: ELISA stands for enzyme-linked immunosorbent assay.
Assay [2] concerns the target Fibronectin receptor (human), P08648. Kind of assay: ELISA. The settings on record: modification not given.
In assay [3] the target is T1, Vitronectin receptor (human), P06756.
T1 chain 1: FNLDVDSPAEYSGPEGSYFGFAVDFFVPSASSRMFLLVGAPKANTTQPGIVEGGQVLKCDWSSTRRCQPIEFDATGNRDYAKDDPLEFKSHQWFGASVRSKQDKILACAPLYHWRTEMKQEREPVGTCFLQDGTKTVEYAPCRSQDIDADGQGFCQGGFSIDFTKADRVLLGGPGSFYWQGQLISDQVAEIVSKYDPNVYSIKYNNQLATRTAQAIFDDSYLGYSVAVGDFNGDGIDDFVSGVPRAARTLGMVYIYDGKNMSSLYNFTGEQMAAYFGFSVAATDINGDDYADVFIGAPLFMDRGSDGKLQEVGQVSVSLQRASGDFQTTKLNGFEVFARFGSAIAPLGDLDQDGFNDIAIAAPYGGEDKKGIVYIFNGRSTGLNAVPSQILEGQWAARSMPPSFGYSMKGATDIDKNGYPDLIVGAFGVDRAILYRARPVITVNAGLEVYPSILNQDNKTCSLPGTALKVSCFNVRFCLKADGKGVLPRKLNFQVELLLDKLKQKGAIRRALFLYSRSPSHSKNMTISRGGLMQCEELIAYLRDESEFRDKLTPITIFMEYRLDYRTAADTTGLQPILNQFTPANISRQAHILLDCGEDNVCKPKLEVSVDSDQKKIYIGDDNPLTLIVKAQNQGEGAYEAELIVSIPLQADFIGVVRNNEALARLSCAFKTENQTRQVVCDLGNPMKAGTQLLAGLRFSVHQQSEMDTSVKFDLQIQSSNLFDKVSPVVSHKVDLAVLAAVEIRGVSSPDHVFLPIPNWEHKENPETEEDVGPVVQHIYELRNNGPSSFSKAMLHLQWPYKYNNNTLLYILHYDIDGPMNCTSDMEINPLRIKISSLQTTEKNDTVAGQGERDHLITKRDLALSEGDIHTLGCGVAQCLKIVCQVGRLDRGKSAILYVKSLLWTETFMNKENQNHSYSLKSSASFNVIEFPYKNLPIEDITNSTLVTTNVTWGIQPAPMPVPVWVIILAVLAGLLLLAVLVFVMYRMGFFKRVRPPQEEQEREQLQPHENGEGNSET
T1 chain 2: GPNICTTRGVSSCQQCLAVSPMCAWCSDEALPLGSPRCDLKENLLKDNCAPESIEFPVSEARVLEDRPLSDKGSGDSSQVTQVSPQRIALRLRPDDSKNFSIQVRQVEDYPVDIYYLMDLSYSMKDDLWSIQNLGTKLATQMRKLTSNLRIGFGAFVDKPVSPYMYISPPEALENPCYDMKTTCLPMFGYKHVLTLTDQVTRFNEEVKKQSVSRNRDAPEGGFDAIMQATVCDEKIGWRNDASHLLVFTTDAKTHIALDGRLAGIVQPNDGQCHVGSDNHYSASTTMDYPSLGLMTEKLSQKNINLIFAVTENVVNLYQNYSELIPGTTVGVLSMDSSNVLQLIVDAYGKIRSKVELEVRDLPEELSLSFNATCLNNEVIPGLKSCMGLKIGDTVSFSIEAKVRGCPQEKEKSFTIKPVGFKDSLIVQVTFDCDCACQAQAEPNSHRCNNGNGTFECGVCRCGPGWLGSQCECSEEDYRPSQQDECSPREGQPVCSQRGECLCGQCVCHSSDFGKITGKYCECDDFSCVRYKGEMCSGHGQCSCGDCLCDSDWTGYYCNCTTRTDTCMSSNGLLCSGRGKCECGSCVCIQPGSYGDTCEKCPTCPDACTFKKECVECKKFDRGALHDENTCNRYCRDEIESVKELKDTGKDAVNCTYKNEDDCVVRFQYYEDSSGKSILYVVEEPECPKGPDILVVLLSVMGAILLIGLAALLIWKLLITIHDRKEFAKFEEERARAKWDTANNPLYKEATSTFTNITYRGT
Kind of assay: competition, ELISA or liposome assay, vitronectin coated.

Assay [4] deals with Platelet glycoprotein IIb/IIIa (human), P08514. The assay can be described thus: competition, ELISA or liposome assay.
Assay [5] shares this target. Kind of assay: cell-based or functional assay.

Fibronectin receptor (human), P08648, sequence (P08648 42-1049, chain 1 of 2): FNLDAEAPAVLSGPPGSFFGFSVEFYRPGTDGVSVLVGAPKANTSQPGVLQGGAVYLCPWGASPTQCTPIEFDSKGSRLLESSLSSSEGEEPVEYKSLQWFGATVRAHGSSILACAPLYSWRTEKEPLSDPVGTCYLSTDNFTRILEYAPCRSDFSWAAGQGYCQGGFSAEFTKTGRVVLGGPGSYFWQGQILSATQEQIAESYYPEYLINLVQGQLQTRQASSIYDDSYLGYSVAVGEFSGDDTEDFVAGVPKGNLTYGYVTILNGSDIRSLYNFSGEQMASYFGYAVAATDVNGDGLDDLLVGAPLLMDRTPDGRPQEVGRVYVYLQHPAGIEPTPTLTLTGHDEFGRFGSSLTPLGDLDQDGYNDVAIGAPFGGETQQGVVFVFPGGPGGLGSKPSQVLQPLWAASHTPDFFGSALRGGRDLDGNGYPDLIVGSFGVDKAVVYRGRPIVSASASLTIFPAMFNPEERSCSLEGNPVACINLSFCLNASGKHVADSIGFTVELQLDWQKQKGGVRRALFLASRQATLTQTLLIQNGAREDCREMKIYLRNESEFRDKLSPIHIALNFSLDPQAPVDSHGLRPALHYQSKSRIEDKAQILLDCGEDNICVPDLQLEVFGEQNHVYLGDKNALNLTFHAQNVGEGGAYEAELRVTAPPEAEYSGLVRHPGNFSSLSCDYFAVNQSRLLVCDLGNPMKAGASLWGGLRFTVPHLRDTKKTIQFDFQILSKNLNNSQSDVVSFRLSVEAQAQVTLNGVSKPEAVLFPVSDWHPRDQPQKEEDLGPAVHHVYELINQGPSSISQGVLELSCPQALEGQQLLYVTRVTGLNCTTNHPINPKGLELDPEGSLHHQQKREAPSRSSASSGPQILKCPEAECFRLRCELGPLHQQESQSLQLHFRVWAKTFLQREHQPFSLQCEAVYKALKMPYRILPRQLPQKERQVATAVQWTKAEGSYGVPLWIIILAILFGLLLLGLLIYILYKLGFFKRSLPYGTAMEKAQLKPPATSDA
Fibronectin receptor (human), P08648, sequence (chain, as listed by the source, chain 2 of 2): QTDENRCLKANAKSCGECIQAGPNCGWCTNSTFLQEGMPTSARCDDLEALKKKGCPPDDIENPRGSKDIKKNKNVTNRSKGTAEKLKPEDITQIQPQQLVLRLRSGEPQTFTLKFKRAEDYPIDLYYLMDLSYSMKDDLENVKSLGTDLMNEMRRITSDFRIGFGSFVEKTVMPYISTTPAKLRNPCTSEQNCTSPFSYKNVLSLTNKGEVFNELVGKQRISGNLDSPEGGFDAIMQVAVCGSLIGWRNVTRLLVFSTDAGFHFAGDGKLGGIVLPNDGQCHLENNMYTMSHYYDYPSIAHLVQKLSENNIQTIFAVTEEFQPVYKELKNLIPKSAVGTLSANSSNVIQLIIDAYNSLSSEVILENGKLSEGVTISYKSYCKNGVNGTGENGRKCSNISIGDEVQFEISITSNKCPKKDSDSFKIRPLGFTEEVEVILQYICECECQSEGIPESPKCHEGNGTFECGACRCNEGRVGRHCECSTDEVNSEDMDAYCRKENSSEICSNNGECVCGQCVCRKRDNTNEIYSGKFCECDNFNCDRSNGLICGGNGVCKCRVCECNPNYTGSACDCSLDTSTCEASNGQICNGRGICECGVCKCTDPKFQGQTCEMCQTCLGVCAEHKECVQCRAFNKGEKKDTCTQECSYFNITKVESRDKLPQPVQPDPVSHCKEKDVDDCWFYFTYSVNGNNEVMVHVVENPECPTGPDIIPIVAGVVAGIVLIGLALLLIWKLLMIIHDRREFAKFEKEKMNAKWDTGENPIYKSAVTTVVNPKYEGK

B1: R(Pmc)RHRGD(Y-OMe)RCR (peptide)
chain: R[Pmc′]RHRGD[Y‑OMe]RCR
modifications: disulfide 2-10
In the case of B1, the IC50 in assay [1] was determined as 70 nM.

B2: R(Pmc)G(DY)RGD(Y-OMe)RCR (peptide)
chain: R[Cys(β,β-pentamethylene)]GXRGD[Tyr(Me)″]RCR
modifications: disulfide 2-10; not fully specified (residue 4); printed as R(Pmc)G(DY)RGD(Y-OMe)RCR
B2 displayed an IC50 in assay [2] of 10000 nM.

B3: R(Pmc)SHRGD(Y-OMe)RCR (peptide)
chain: R[Pmc′]SHRGD[Y‑OMe]RCR
modifications: disulfide 2-10
In assay [2], B3 displayed an IC50 greater than 10000 nM.

B4: G(Pen)… (peptide)
peptide: G[Pen]IARGDWNCA
modifications: disulfide 2-10
As for B4, the IC50 in assay [3] was 40 nM; in assay [4], 10 nM. This molecule also registered an IC50, ADP-Stimulated Aggregation in assay [5] of 1200 nM.

B5: R(Pmc)GHRGD(2-Nal)RCR (peptide)
chain: R[Cys(β,β-pentamethylene)]GHRGD[2Nal]RCR
modifications: disulfide 2-10
In turn, B5 came in with a concentration for half-maximal inhibition (IC50) in assay [1] of 70 nM.
